Substitutions are numbered along the chain they refer to. Numbers in names are those of the source.
B1: T13R/C16R/L70Q/A71D: variant CD80 IgV-Fc, IgV SEQ ID NO:155 (protein)
chain: VIHVTKEVKEVARLSRGHNVSVEELAQTRIYWQKEKKMVLTMMSGDMNIWPEYKNRTIFDITNNLSIVIQDLRPSDEGTYECVVLKYEKDAFKREHLAEVTLSVKAD
B2: M47V/N48H: variant CD80 IgV-Fc, IgV SEQ ID NO:180 (protein)
chain: B1 chain with R13T, R16C, M47V, N48H, Q70L, D71A
B3: K34E/T41A/L72V: variant CD80 IgV-Fc, IgV SEQ ID NO:174 (protein)
chain: B1 chain with R13T, R16C, K34E, T41A, Q70L, D71A, L72V
B4: T41S/A71D/V84A: variant CD80 IgV-Fc, IgV SEQ ID NO:175 (protein)
chain: B1 chain with R13T, R16C, T41S, Q70L, V84A
B5: M43I/C82R: variant CD80 IgV-Fc, IgV SEQ ID NO:157 (protein)
chain: B1 chain with R13T, R16C, M43I, Q70L, D71A, C82R
B6: E81K/A91S: variant CD80 IgV-Fc, IgV SEQ ID NO:172 (protein)
chain: B1 chain with R13T, R16C, Q70L, D71A, E81K, A91S
B7: V22I/L70M/A71D: variant CD80 IgV-Fc, IgV SEQ ID NO:160 (protein)
chain: B1 chain with R13T, R16C, V22I, Q70M
B8: M47I/E88D: variant CD80 IgV-Fc, IgV SEQ ID NO:186 (protein)
chain: B1 chain with R13T, R16C, M47I, Q70L, D71A, E88D
B9: K36R/G78A: variant CD80 IgV-Fc, IgV SEQ ID NO:178 (protein)
chain: B1 chain with R13T, R16C, K36R, Q70L, D71A, G78A
B10: S44P/A71D: variant CD80 IgV-Fc, IgV SEQ ID NO:182 (protein)
chain: B1 chain with R13T, R16C, S44P, Q70L
B11: V20I/M47V/A71D: variant CD80 IgV-Fc, IgV SEQ ID NO:191 (protein)
chain: B1 chain with R13T, R16C, V20I, M47V, Q70L
B12: V22L/E35G/A71D/L72P: variant CD80 IgV-Fc, IgV SEQ ID NO:193 (protein)
chain: B1 chain with R13T, R16C, V22L, E35G, Q70L, L72P
B13: Q27H/M43I/A71D/R73S: variant CD80 IgV-Fc, IgV SEQ ID NO:183 (protein)
chain: B1 chain with R13T, R16C, Q27H, M43I, Q70L, R73S
B14: I30V/T57I/L70P/A71D/A91T: variant CD80 IgV-Fc, IgV SEQ ID NO:159 (protein)
chain: B1 chain with R13T, R16C, I30V, T57I, Q70P, A91T
B15: L25S/E35D/M47I/D90N: variant CD80 IgV-Fc, IgV SEQ ID NO:168 (protein)
chain: B1 chain with R13T, R16C, L25S, E35D, M47I, Q70L, D71A, D90N
B16: A71D: variant CD80 IgV-Fc, IgV SEQ ID NO:170 (protein)
chain: B1 chain with R13T, R16C, Q70L
B17: H18Y/M47I/T57I/A71G: variant CD80 IgV-Fc, IgV SEQ ID NO:189 (protein)
chain: B1 chain with R13T, R16C, H18Y, M47I, T57I, Q70L, D71G
B18: E35D/M47I/L65P/D90N: variant CD80 IgV-Fc, IgV SEQ ID NO:167 (protein)
chain: B1 chain with R13T, R16C, E35D, M47I, L65P, Q70L, D71A, D90N
B19: M42I/I61V/A71D: variant CD80 IgV-Fc, IgV SEQ ID NO:187 (protein)
chain: B1 chain with R13T, R16C, M42I, I61V, Q70L
B20: T57I: variant CD80 IgV-Fc, IgV SEQ ID NO:156 (protein)
chain: B1 chain with R13T, R16C, T57I, Q70L, D71A
B21: E35D/I57I/L70Q/A71D: variant CD80 IgV-Fc, IgV SEQ ID NO:185 (protein)
chain: B1 chain with R13T, R16C, E35D, T57I
B22: V22L/M38V/M47I/A71D/L85M: variant CD80 IgV-Fc, IgV SEQ ID NO:158 (protein)
chain: B1 chain with R13T, R16C, V22L, M38V, M47T, Q70L, L85M
B23: M47L/V68A: variant CD80 IgV-Fc, IgV SEQ ID NO:181 (protein)
chain: B1 chain with R13T, R16C, M47L, V68A, Q70L, D71A
B24: V20I/M47V/I57I/V84I: variant CD80 IgV-Fc, IgV SEQ ID NO:190 (protein)
chain: B1 chain with R13T, R16C, V20I, M47V, T57I, Q70L, D71A, V84I
B25: Q33E/T41A: variant CD80 IgV-Fc, IgV SEQ ID NO:179 (protein)
chain: B1 chain with R13T, R16C, Q33E, T41A, Q70L, D71A
B26: E35D/A71D: variant CD80 IgV-Fc, listed twice: IgV SEQ ID NO:176 (Table E1) and 194 (Table E2) (protein)
chain: B1 chain with R13T, R16C, E35D, Q70L
B27: R29D, Y31L, Q33H, K36G, M38I, T41A, M43R, M47T, L70Q, E81V, L85R, K89N, A91T, F92P, K93V, R94L, I118V, T120S, T130A, N149D, K169E, H188D (protein)
chain: VIHVTKEVKEVATLSCGHNVSVEELAQTDILWHKEGKIVLAMRSGDTNIWPEYKNRTIFDITNNLSIVIQALRPSDEGTYVCVVRKYENDTPVLEHLAEVTLSVKADFPTPSISDFEVPSSNIRRIICSASGGFPEPHLSWLENGEELDAINTTVSQDPETELYAVSSELDFNMTTNHSFMCLIKYGDLRVNQTFNWNTTKQEHFPDN
B28: R29D, Y31L, Q33H, K36G, M38I, T41A, M43R, M47T, E81V, L85R, K89N, A91T, F92P, K93V, R94L, I118V, T120S, I127T, C128Y, T130A, H188D (protein)
chain: B27 chain with Q70L, I127T, C128Y, D149N, E169K
B29: H18L, R29D, Y31L, Q33H, K36G, M38I, T41A, M43R, M47T, L70Q, E81V, L85R, K89N, A91T, F92P, K93V, R94L, I118V, T120S, T130A, K169E, H188D (protein)
chain: B27 chain with H18L, D149N

These molecules were tested against CD28 (Homo sapiens, UniProt P10747) (assay: Jurkat/IL2 reporter assay: blockade of CD28 costimulation (plate-bound anti-CD3/CD86-Fc)). Conditions: Table E5; protein diluted to 40 nM before mixing with cells; 5 hours.
Format: cell-based
Parameters: host or cells: Jurkat cells expressing an IL-2-luciferase reporter
Method: The day before the assay, the assay plate was prepared. […] The plate was incubated overnight at 4° C. to allow the antibody and CD86-Fc protein to adhere to the surface of the plate. The next day, the wells of the assay plate were washed twice with 150 μL PBS prior to the assay.
Jurkat effector cells expressing IL-2-luciferase reporter were counted and resuspended in assay buffer to a concentration of 2×10^6 cells/mL. 60 μL of the Jurkat cell suspension were then added to the wells containing the CD80-Fc fusion molecules or controls. The cells and CD80 proteins were incubated at room temperature for 15 minutes and then 100 μL of the cell/CD80 protein mixture were transferred/well of the prepared anti-CD3/CD86-Fc assay plate.
The assay plate was briefly spun down (10 seconds at 1200 RPM) and incubated at 37° C. for 5 hours. After the 5 hour incubation, the plate was removed and equilibrated to room temperature for 15 minutes. 100 μL of Bio-Glo (Promega) were added/well of the assay plate, which was then placed on an orbital shaker for 10 minutes. Luminescence was measured with a 1 second per well integration time using a BioTek Cytation 3 luminometer.

| Average Relative Luminescence Units | Molecule |
| --- | --- |
| 3204 Relative Luminescence Units | B1 |
| 2656 Relative Luminescence Units | B2 |
| 4225 Relative Luminescence Units | B3 |
| 2685 Relative Luminescence Units | B4 |
| 1326 Relative Luminescence Units | B5 |
| 4038 Relative Luminescence Units | B6 |
| 253 Relative Luminescence Units | B7 |
| 2178 Relative Luminescence Units | B8 |
| 2597 Relative Luminescence Units | B9 |
| 2848 Relative Luminescence Units | B10 |
| 360 Relative Luminescence Units | B11 |
| 2334 Relative Luminescence Units | B12 |
| 1891 Relative Luminescence Units | B13 |
| 1731 Relative Luminescence Units | B14 |
| 2567 Relative Luminescence Units | B15 |
| 999 Relative Luminescence Units | B16 |
| 924 Relative Luminescence Units | B17 |
| 2377 Relative Luminescence Units | B18 |
| 2549 Relative Luminescence Units | B19 |
| 1463 Relative Luminescence Units | B20 |
| 280 Relative Luminescence Units | B21 |
| 1770 Relative Luminescence Units | B22 |
| 5445 Relative Luminescence Units | B23 |
| 1870 Relative Luminescence Units | B24 |
| 4220 Relative Luminescence Units | B25 |

Same assay, conditions: Table E5; protein diluted to 40 nM before mixing with cells; 5 hours; SEQ ID NO 176

| Average Relative Luminescence Units | Molecule |
| --- | --- |
| 1461 Relative Luminescence Units | B26 |

The molecules below were run on human pan T cells (assay: Anti-CD3 coimmobilization assay, IFN-gamma). Conditions: Table E34; culture supernatant, 3 days.
Format: cell-based
In short: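 Plates coated overnight with 1 nM or 4 nM OKT3 anti-CD3 plus 1–80 nM rCD80.Fc variants, then washed. Purified human pan T cells or BC3 T cell clone (100,000/well) cultured 3 days in Ex-Vivo 15; supernatant IFN-gamma measured by ELISA.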

| Molecule | Anti-CD3 IFN-gamma Coimmobilization Assay [pg/mL] |
| --- | --- |
| B27 | 118 |
| B28 | 278 |
| B29 | 157 |
